Experimental data reported in publication PMC11257990, “Noncanonical assembly, neddylation and chimeric cullin–RING/RBR ubiquitylation by the 1.8 MDa CUL9 E3 ligase complex” (Nature Structural & Molecular Biology, 2024).

Target: T1, UBE2L3 (human, UniProt P68036 1-154)
T1 construct: UBE2L3, human; source: E. coli Rosetta 2 (DE3), purified (glutathione sepharose, TEV cleavage, ion exchange, SEC)
Assay: ITC; E2 (300–500 μM) in the syringe, CUL9^ARIH-RBR (25 μM) in the cell; 25 °C; 25 mM HEPES pH 7.5, 150 mM NaCl, 0.5 mM TCEP; 19 × 2 μl injections; single-site model
Conditions: both partners purified

T1 sequence (P68036 whole entry): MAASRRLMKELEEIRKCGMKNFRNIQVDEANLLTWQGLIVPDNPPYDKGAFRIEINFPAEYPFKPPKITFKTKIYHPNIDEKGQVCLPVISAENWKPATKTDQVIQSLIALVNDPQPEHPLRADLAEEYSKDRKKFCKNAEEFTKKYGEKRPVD

B1: CUL9^ARIH-RBR (domain or fragment, human, UniProt Q8IWT3 1979-2517, looked up)
chain: SPEAVATLASLQLPAGRTMSPQEVEGLMKQTVRQVQETLNLEPDVAQHLLAHSHWGAEQLLQSYSEDPEPLLLAAGLCVHQAQAVPVRPDHCPVCVSPLGCDDDLPSLCCMHYCCKSCWNEYLTTRIEQNLVLNCTCPIADCPAQPTGAFIRAIVSSPEVISKYEKALLRGYVESCSNLTWCTNPQGCDRILCRQGLGCGTTCSKCGWASCFNCSFPEAHYPASCGHMSQWVDDGGYYDGMSVEAQSKHLAKLISKRCPSCQAPIEKNEGCLHMTCAKCNHGFCWRCLKSWKPNHKDYYNCSAMVSKAARQEKRFQDYNERCTFHHQAREFAVNLRNRVSAIHEVPPPRSFTFLNDACQGLEQARKVLAYACVYSFYSQDAEYMDVVEQQTENLELHTNALQILLEETLLRCRDLASSLRLLRADCLSTGMELLRRIQERLLAILQHSAQDFRVGLQSPSVEAWEAKGPNMPGSQPQASSGPEAEEEEEDDEDDVPEWQQDEFDEELDNDSFSYDESENLDQETFFFGDEEEDEDEAYD
notes: CUL9, human, ARIH-RBR element, residues 1979-2517; also called CUL9 RBR element; source: HEK293S, baculovirus infection, without RBX1, purified; not shown: TwinStrep, N-terminal, cleaved
  binding result: binds
